Results as given in the supplement of paper PMC9112550, “Optimization of the antimicrobial peptide Bac7 by deep mutational scanning” (BMC Biology, 2022).

Test system: Escherichia coli TOP10
Assay: shrunken log2 fold change of peptide-encoding DNA abundance (4.5 h post-induction vs induction); higher = less antimicrobial activity (less host growth inhibition)
Conditions: time post-induction: 4.5 h; library: site-saturation at positions 5, 18, 19, 20
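Note: peptides expressed intracellularly from a pBAD plasmid library in pooled LB shake-flask culture, induced with 0.3% L-arabinose, DNA abundance read by NGS, three biological replicates, DESeq2 with apeglm shrinkage.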

Sequence	shrunken log2 fold change
RRIRSRPPRLPRPRPRPMMPPRP	-0.0787
RRIRSRPPRLPRPRPRPMMRPRP	0.836
RRIRSRPPRLPRPRPRPMNHPRP	-0.256
RRIRSRPPRLPRPRPRPMNSPRP	-0.776
RRIRSRPPRLPRPRPRPMPEPRP	0.376
RRIRSRPPRLPRPRPRPMRAPRP	0.706
RRIRSRPPRLPRPRPRPMRCPRP	0.361
RRIRSRPPRLPRPRPRPMTCPRP	0.04
RRIRSRPPRLPRPRPRPMTEPRP	0.0273
RRIRSRPPRLPRPRPRPMTGPRP	0.00381
RRIRSRPPRLPRPRPRPMVGPRP	0.158
RRIRSRPPRLPRPRPRPMVIPRP	-0.0364
RRIRSRPPRLPRPRPRPMVPPRP	-0.0173
RRIRSRPPRLPRPRPRPMVTPRP	-0.134
RRIRSRPPRLPRPRPRPMWQPRP	-0.175
RRIRSRPPRLPRPRPRPMYAPRP	-0.29
RRIRSRPPRLPRPRPRPNANPRP	0.0564
RRIRSRPPRLPRPRPRPNDTPRP	-0.437
RRIRSRPPRLPRPRPRPNEFPRP	0.00763
RRIRSRPPRLPRPRPRPNEHPRP	-0.655
RRIRSRPPRLPRPRPRPNEIPRP	-0.12
RRIRSRPPRLPRPRPRPNEQPRP	0.0903
RRIRSRPPRLPRPRPRPNFDPRP	0.221
RRIRSRPPRLPRPRPRPNGAPRP	-0.299
RRIRSRPPRLPRPRPRPNGLPRP	-0.0247

Sequence	shrunken log2 fold change
RRIRSRPPRLPRPRPRPNGVPRP	-0.00885
RRIRSRPPRLPRPRPRPNGWPRP	0.623
RRIRSRPPRLPRPRPRPNHLPRP	-0.814
RRIRSRPPRLPRPRPRPNIYPRP	-0.519
RRIRSRPPRLPRPRPRPNKCPRP	-0.42
RRIRSRPPRLPRPRPRPNKNPRP	-0.384
RRIRSRPPRLPRPRPRPNKPPRP	-0.23
RRIRSRPPRLPRPRPRPNKTPRP	-0.286
RRIRSRPPRLPRPRPRPNMAPRP	-0.0738
RRIRSRPPRLPRPRPRPNMQPRP	-0.0719
RRIRSRPPRLPRPRPRPNMSPRP	-0.315
RRIRSRPPRLPRPRPRPNNFPRP	-0.667
RRIRSRPPRLPRPRPRPNNGPRP	-0.035
RRIRSRPPRLPRPRPRPNNMPRP	-0.534
RRIRSRPPRLPRPRPRPNNWPRP	-0.0732
RRIRSRPPRLPRPRPRPNPEPRP	0.0679
RRIRSRPPRLPRPRPRPNPGPRP	-0.17
RRIRSRPPRLPRPRPRPNTSPRP	-0.242
RRIRSRPPRLPRPRPRPNVHPRP	-0.312
RRIRSRPPRLPRPRPRPNVNPRP	0.259
RRIRSRPPRLPRPRPRPNWWPRP	0.022
RRIRSRPPRLPRPRPRPNYMPRP	-0.756
RRIRSRPPRLPRPRPRPNYVPRP	-0.906
RRIRSRPPRLPRPRPRPPDDPRP	0.488
RRIRSRPPRLPRPRPRPPDMPRP	-0.188

Sequence	shrunken log2 fold change
RRIRSRPPRLPRPRPRPPEQPRP	0.306
RRIRSRPPRLPRPRPRPPESPRP	0.877
RRIRSRPPRLPRPRPRPPETPRP	0.103
RRIRSRPPRLPRPRPRPPFGPRP	0.398
RRIRSRPPRLPRPRPRPPFRPRP	0.193
RRIRSRPPRLPRPRPRPPGWPRP	0.193
RRIRSRPPRLPRPRPRPPHGPRP	0.1
RRIRSRPPRLPRPRPRPPITPRP	-0.177
RRIRSRPPRLPRPRPRPPKKPRP	0.282
RRIRSRPPRLPRPRPRPPNAPRP	0.0817
RRIRSRPPRLPRPRPRPPPEPRP	0.852
RRIRSRPPRLPRPRPRPPQGPRP	0.39
RRIRSRPPRLPRPRPRPPRCPRP	0.218
RRIRSRPPRLPRPRPRPPSEPRP	0.0467
RRIRSRPPRLPRPRPRPPTEPRP	0.194
RRIRSRPPRLPRPRPRPPTLPRP	0.0631
RRIRSRPPRLPRPRPRPPVFPRP	0.368
RRIRSRPPRLPRPRPRPPVIPRP	-0.0672
RRIRSRPPRLPRPRPRPPWYPRP	-0.321
RRIRSRPPRLPRPRPRPPYAPRP	0.0164
RRIRSRPPRLPRPRPRPPYSPRP	-0.379
RRIRSRPPRLPRPRPRPQCAPRP	0.233
RRIRSRPPRLPRPRPRPQCGPRP	-0.129
RRIRSRPPRLPRPRPRPQCIPRP	-1.27
RRIRSRPPRLPRPRPRPQCKPRP	0.0936

Sequence	shrunken log2 fold change
RRIRSRPPRLPRPRPRPQCMPRP	-0.584
RRIRSRPPRLPRPRPRPQDGPRP	-0.0336
RRIRSRPPRLPRPRPRPQEMPRP	0.111
RRIRSRPPRLPRPRPRPQGCPRP	-0.0814
RRIRSRPPRLPRPRPRPQGTPRP	0.0846
RRIRSRPPRLPRPRPRPQHGPRP	-0.397
RRIRSRPPRLPRPRPRPQHIPRP	-1.21
RRIRSRPPRLPRPRPRPQHYPRP	-0.804
RRIRSRPPRLPRPRPRPQIHPRP	-0.341
RRIRSRPPRLPRPRPRPQLMPRP	-0.1
RRIRSRPPRLPRPRPRPQPRPRP	0.285
RRIRSRPPRLPRPRPRPQRDPRP	-0.117
RRIRSRPPRLPRPRPRPQRHPRP	0.141
RRIRSRPPRLPRPRPRPQTCPRP	-0.0978
RRIRSRPPRLPRPRPRPQWHPRP	-0.26
RRIRSRPPRLPRPRPRPQWPPRP	0.121
RRIRSRPPRLPRPRPRPQWRPRP	0.11
RRIRSRPPRLPRPRPRPQYVPRP	-0.22
RRIRSRPPRLPRPRPRPRATPRP	0.301
RRIRSRPPRLPRPRPRPRAYPRP	0.031
RRIRSRPPRLPRPRPRPRDFPRP	0.528
RRIRSRPPRLPRPRPRPRDIPRP	-0.248
RRIRSRPPRLPRPRPRPRFEPRP	0.402
RRIRSRPPRLPRPRPRPRGFPRP	0.82
RRIRSRPPRLPRPRPRPRHTPRP	0.0335

Sequence	shrunken log2 fold change
RRIRSRPPRLPRPRPRPRIEPRP	0.753
RRIRSRPPRLPRPRPRPRIHPRP	-0.323
RRIRSRPPRLPRPRPRPRKMPRP	0.207
RRIRSRPPRLPRPRPRPRLKPRP	-0.0978
RRIRSRPPRLPRPRPRPRMGPRP	0.234
RRIRSRPPRLPRPRPRPRPEPRP	0.507
RRIRSRPPRLPRPRPRPRQDPRP	0.127
RRIRSRPPRLPRPRPRPRRHPRP	0.323
RRIRSRPPRLPRPRPRPRSIPRP	-0.0602
RRIRSRPPRLPRPRPRPRVAPRP	0.179
RRIRSRPPRLPRPRPRPRVIPRP	0.017
RRIRSRPPRLPRPRPRPRVMPRP	-0.171
RRIRSRPPRLPRPRPRPRYVPRP	-0.597
RRIRSRPPRLPRPRPRPSADPRP	0.0633
RRIRSRPPRLPRPRPRPSAFPRP	-0.0159
RRIRSRPPRLPRPRPRPSCDPRP	-0.444
RRIRSRPPRLPRPRPRPSCLPRP	-0.585
RRIRSRPPRLPRPRPRPSCWPRP	0.306
RRIRSRPPRLPRPRPRPSDIPRP	-0.516
RRIRSRPPRLPRPRPRPSGKPRP	-0.202
RRIRSRPPRLPRPRPRPSHEPRP	0.0867
RRIRSRPPRLPRPRPRPSIFPRP	-0.511
RRIRSRPPRLPRPRPRPSIVPRP	-0.525
RRIRSRPPRLPRPRPRPSKEPRP	-0.0581
RRIRSRPPRLPRPRPRPSKHPRP	-0.461

Sequence	shrunken log2 fold change
RRIRSRPPRLPRPRPRPSKPPRP	-0.432
RRIRSRPPRLPRPRPRPSLIPRP	-0.0623
RRIRSRPPRLPRPRPRPSNFPRP	-0.379
RRIRSRPPRLPRPRPRPSRPPRP	1.28
RRIRSRPPRLPRPRPRPSSPPRP	-0.561
RRIRSRPPRLPRPRPRPSSQPRP	0.0487
RRIRSRPPRLPRPRPRPSSWPRP	0.206
RRIRSRPPRLPRPRPRPSTIPRP	-0.482
RRIRSRPPRLPRPRPRPSTWPRP	-0.301
RRIRSRPPRLPRPRPRPSWNPRP	-0.342
RRIRSRPPRLPRPRPRPSYCPRP	-1.07
RRIRSRPPRLPRPRPRPSYDPRP	-0.609
RRIRSRPPRLPRPRPRPSYSPRP	0.232
RRIRSRPPRLPRPRPRPSYTPRP	-0.437
RRIRSRPPRLPRPRPRPSYVPRP	-0.735
RRIRSRPPRLPRPRPRPTASPRP	0.116
RRIRSRPPRLPRPRPRPTFYPRP	-0.231
RRIRSRPPRLPRPRPRPTKHPRP	-0.151
RRIRSRPPRLPRPRPRPTKSPRP	0.0789
RRIRSRPPRLPRPRPRPTLLPRP	0.227
RRIRSRPPRLPRPRPRPTMMPRP	-0.253
RRIRSRPPRLPRPRPRPTNFPRP	0.0979
RRIRSRPPRLPRPRPRPTRAPRP	0.738
RRIRSRPPRLPRPRPRPTRGPRP	0.581
RRIRSRPPRLPRPRPRPTRHPRP	0.227
